Data reported in paper PMC3433420.
Several values for one entry are separate records, joined by “and”; a condition that tells them apart may be missing. Equal entries are not always repeated. Where two headings read alike, the source gives them in different places. Values belong to the substance of their own block, whether it stands above or below them.

Experiments:
SYK-N (Homo sapiens) = SYK-N (Homo sapiens) (UniProt P43405); conditions: cited from earlier work
SYK-NC (Homo sapiens) = SYK-NC (Homo sapiens) (UniProt P43405); conditions: cited from earlier work
LYN (Homo sapiens) = LYN (Homo sapiens) (UniProt P07948); conditions: cited from earlier work
PIK3R1-N (Homo sapiens) = PIK3R1-N (Homo sapiens) (UniProt P27986); conditions: cited from earlier work
SHC3 (Homo sapiens) = SHC3 (Homo sapiens) (UniProt Q92529); conditions: cited from earlier work
CRKL (Homo sapiens) = CRKL (Homo sapiens) (UniProt P46109); conditions: cited from earlier work
PIK3R2-N (Homo sapiens) = PIK3R2-N (Homo sapiens) (UniProt O00459); conditions: cited from earlier work
ITK (Homo sapiens) = ITK (Homo sapiens) (UniProt Q08881); conditions: cited from earlier work
RASA1-N (Homo sapiens) = RASA1-N (Homo sapiens) (UniProt P20936); conditions: cited from earlier work
PIK3R3-NC (Homo sapiens) [1] = target: PIK3R3-NC (Homo sapiens) (UniProt Q92569); conditions: cited from earlier work
TEC (Homo sapiens) = TEC (Homo sapiens) (UniProt P42680); conditions: cited from earlier work
BLK (Homo sapiens) = BLK (Homo sapiens) (UniProt P51451); conditions: cited from earlier work
SHC1-PTB (Homo sapiens) [2] = target: SHC1-PTB (Homo sapiens) (UniProt P29353); conditions: cited from earlier work
YES1 (Homo sapiens) = YES1 (Homo sapiens) (UniProt P07947); conditions: cited from earlier work
GRB7 (Homo sapiens) = GRB7 (Homo sapiens) (UniProt Q14451); conditions: cited from earlier work
ABL2 (Homo sapiens) = ABL2 (Homo sapiens) (UniProt P42684); conditions: cited from earlier work
FGR (Homo sapiens) = FGR (Homo sapiens) (UniProt P09769); conditions: cited from earlier work
PIK3R3-NC (Homo sapiens) [3] = target: PIK3R3-NC (Homo sapiens) (UniProt Q92569); conditions: cited from earlier work; remark: listed apart in the source
PLCG2-NC (Homo sapiens) = PLCG2-NC (Homo sapiens) (UniProt P16885); conditions: cited from earlier work
SRC (Homo sapiens) = SRC (Homo sapiens) (UniProt P12931); conditions: cited from earlier work
GRB2 (Homo sapiens) = GRB2 (Homo sapiens) (UniProt P62993); conditions: cited from earlier work
PIK3R1-NC (Homo sapiens) = PIK3R1-NC (Homo sapiens) (UniProt P27986); conditions: cited from earlier work
RASA1-NC (Homo sapiens) = RASA1-NC (Homo sapiens) (UniProt P20936); conditions: cited from earlier work
SHC1 (Homo sapiens) = SHC1 (Homo sapiens) (UniProt P29353); conditions: cited from earlier work
CRK (Homo sapiens) = CRK (Homo sapiens) (UniProt P46108); conditions: cited from earlier work
SHC1-PTB (Homo sapiens) [4] = target: SHC1-PTB (Homo sapiens) (UniProt P29353); conditions: cited from earlier work; remark: listed apart in the source
SRC SH2 domain (human) = SRC SH2 domain (human) (UniProt P12931); assay: peptide or protein array; SH2/PTB proteins spotted on aldehyde slides, rhodamine peptide titrated in buffer B (20 mM HEPES, 100 mM KCl, 0.1% Tween-20, 5 mM DTT, pH 7.8), 1 h at room temperature; replicate assays
VAV2 SH2 domain (human) = VAV2 SH2 domain (human) (UniProt P52735); assay: as above
[5] = target: PIK3R1 tandem SH2 domains (human) (UniProt P27986); assay: as above
SHF SH2 domain (human) = SHF SH2 domain (human) (UniProt Q7M4L6); assay: as above
ABL2 SH2 domain (human) = ABL2 SH2 domain (human) (UniProt P42684); assay: as above
NCK2 SH2 domain (human) = NCK2 SH2 domain (human) (UniProt O43639); assay: as above
[6] = target: PIK3R2 tandem SH2 domains (human) (UniProt O00459); assay: as above
[7] = target: PLCG1 C-terminal SH2 domain (human); assay: as above
ITK SH2 domain (human) = ITK SH2 domain (human) (UniProt Q08881); assay: as above
[8] = target: RASA1 N-terminal SH2 domain (human) (UniProt P20936); assay: as above
[9] = target: SH2D3A SH2 domain (human) (UniProt Q9BRG2); assay: as above
[10] = target: RASA1 tandem SH2 domains (human); assay: as above
[11] = target: SH2D1A SH2 domain (human) (UniProt O60880); assay: as above
HSH2D SH2 domain (human) = HSH2D SH2 domain (human) (UniProt Q96JZ2); assay: as above
[12] = target: PIK3R3 tandem SH2 domains (human); assay: as above
[13] = target: PLCG2 tandem SH2 domains (human); assay: as above
[14] = target: ErbB3-pY1197 phosphopeptide, rhodamine-labelled (human); assay: fluorescence polarisation; saturation binding in solution; rhodamine-labeled peptide fixed at 10 nM, protein titrated 0.002-10 µM (twelve two-fold dilutions); 20 minutes at room temperature in the dark; assay buffer 20 mM HEPES, 100 mM KCl, 0.1% Tween-20, 5 mM DTT, pH 7.8; apparent KD; assay detection threshold of 20 µM
[15] = target: ErbB3-pY1260 phosphopeptide, rhodamine-labelled (human); assay: as above

Chain of PIK3R1 tandem SH2 domains (human) (P27986 whole entry, the tested form may be a part): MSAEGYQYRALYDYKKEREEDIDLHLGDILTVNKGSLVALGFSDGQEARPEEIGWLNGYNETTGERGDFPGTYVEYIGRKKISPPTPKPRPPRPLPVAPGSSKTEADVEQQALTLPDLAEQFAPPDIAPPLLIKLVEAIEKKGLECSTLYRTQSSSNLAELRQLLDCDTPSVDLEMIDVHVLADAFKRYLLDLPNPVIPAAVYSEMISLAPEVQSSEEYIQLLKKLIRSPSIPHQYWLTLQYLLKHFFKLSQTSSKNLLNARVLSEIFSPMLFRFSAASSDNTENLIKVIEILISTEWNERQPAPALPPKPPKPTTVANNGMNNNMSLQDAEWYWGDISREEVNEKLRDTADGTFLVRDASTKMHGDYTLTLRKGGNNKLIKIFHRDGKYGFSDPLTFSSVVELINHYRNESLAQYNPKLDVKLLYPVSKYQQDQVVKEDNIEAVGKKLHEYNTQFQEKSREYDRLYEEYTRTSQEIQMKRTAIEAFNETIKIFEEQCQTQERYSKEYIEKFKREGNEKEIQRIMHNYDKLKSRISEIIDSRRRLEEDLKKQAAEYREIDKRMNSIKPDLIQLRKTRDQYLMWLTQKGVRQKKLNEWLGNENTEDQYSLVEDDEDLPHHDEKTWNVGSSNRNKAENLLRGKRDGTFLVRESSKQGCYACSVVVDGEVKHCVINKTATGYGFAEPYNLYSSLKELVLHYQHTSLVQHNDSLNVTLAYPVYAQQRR
Chain of SHC1-PTB (Homo sapiens) (P29353 483-583): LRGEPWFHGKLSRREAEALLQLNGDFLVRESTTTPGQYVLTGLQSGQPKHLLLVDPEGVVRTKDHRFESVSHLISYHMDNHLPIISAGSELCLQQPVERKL
Chain of GRB7 SH2 domain (Q14451 431-527): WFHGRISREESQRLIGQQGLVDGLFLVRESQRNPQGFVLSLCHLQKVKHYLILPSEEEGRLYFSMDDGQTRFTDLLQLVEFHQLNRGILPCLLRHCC
Chain of ABL2 SH2 domain (human) (P42684 173-263): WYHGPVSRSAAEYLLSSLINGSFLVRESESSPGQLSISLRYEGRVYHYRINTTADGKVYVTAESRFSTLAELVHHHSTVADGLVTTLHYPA
Chain of SHC3 (Homo sapiens) (Q92529 494-594): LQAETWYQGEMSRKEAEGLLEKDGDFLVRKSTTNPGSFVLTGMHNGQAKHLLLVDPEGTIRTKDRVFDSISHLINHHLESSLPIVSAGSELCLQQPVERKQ
Chain of SH2D1A SH2 domain (human) (O60880 6-104): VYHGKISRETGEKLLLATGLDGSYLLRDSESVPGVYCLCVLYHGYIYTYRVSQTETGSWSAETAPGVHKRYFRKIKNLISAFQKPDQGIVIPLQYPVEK
Chain of ITK SH2 domain (human) (Q08881 239-338): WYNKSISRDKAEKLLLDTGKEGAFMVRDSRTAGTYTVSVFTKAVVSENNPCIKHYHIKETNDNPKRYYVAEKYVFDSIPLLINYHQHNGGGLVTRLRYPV
Chain of GRB2 (Homo sapiens) (P62993 55-157): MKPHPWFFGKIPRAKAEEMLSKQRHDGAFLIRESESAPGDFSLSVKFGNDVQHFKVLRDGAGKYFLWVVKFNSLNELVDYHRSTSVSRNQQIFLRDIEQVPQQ
Chain of PIK3R2 tandem SH2 domains (human) (O00459 whole entry, the tested form may be a part): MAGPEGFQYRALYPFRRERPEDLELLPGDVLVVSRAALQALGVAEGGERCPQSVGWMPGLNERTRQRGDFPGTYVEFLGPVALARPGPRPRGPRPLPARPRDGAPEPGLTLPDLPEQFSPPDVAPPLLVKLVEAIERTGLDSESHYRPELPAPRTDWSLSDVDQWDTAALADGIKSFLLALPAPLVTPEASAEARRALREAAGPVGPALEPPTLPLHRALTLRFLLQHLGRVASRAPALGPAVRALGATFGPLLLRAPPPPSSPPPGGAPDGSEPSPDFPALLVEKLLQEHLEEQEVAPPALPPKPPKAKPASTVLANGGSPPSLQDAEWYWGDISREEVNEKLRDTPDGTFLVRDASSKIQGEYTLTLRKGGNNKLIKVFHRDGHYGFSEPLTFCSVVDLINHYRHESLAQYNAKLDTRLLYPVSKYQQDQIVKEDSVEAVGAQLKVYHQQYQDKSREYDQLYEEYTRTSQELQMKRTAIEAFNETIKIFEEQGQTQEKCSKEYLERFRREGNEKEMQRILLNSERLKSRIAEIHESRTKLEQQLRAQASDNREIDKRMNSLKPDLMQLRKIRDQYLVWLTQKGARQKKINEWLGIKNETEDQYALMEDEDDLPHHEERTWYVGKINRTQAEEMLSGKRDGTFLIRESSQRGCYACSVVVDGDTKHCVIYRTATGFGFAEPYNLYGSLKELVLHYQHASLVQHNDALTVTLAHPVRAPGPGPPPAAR
Chain of VAV2 SH2 domain (human) (P52735 673-767): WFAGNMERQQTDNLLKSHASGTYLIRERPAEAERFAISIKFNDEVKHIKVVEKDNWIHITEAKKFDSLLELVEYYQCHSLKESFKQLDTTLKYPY
Chain of SHC1 (Homo sapiens) (P29353 483-583): as the sequence (P29353 483-583) above
Chain of GRB7 (Homo sapiens) (Q14451 426-532): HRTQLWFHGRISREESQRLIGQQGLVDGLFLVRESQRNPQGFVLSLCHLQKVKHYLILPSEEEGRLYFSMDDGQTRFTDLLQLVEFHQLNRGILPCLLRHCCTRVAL
Chain of SHF SH2 domain (human) (Q7M4L6 323-418): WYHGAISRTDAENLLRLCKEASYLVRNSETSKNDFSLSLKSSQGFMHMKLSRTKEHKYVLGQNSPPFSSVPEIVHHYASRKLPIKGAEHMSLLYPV
Chain of TEC (Homo sapiens) (P42680 242-350): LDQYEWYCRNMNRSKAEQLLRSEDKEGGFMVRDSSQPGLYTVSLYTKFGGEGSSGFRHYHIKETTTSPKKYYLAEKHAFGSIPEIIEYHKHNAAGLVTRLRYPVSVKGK
Chain of HSH2D SH2 domain (human) (Q96JZ2 34-125): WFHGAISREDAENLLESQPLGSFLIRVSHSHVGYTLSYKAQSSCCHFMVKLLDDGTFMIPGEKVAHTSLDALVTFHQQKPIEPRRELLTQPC
Chain of ITK (Homo sapiens) (Q08881 234-343): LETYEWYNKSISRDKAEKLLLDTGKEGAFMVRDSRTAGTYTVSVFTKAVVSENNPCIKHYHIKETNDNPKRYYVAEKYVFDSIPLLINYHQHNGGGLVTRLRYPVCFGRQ
Chain of YES1 (Homo sapiens) (P07947 153-260): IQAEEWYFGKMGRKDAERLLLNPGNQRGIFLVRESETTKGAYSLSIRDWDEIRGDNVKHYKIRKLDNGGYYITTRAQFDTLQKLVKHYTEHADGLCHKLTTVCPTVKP
Chain of PIK3R1-N (Homo sapiens) (P27986 328-723): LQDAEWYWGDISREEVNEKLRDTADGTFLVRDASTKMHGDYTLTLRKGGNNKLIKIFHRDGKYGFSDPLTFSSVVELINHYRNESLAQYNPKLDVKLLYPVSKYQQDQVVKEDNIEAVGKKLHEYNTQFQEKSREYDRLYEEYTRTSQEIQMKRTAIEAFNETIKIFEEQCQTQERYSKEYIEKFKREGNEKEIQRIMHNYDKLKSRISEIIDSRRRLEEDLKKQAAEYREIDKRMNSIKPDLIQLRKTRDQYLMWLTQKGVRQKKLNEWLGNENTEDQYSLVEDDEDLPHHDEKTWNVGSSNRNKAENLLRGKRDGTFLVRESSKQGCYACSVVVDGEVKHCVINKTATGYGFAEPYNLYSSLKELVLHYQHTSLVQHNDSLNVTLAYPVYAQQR
Chain of PIK3R1-NC (Homo sapiens) (P27986 328-723): as above
Chain of SH2D3A SH2 domain (human) (Q9BRG2 15-114): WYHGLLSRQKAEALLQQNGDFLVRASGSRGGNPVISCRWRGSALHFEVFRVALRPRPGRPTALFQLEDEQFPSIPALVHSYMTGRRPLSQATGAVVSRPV
Chain of PIK3R2-N (Homo sapiens) (O00459 325-721): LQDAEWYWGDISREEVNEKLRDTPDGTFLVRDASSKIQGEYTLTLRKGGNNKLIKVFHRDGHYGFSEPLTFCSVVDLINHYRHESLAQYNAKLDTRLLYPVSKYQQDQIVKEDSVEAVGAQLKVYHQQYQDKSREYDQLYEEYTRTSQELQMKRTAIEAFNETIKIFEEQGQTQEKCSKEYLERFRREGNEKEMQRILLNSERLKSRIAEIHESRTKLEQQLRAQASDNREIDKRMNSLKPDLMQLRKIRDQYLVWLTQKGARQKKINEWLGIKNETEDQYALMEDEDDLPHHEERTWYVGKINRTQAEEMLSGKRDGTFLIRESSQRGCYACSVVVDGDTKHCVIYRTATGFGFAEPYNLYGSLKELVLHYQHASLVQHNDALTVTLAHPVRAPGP
Chain of ABL2 (Homo sapiens) (P42684 168-268): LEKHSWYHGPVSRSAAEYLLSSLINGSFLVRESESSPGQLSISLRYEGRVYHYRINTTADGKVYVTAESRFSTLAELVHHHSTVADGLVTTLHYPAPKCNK
Chain of CRK (Homo sapiens) (P46108 8-123): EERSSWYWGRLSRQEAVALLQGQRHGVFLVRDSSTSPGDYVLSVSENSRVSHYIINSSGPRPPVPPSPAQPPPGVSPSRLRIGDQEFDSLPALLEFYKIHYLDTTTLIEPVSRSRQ
Chain of BLK (Homo sapiens) (P51451 119-225): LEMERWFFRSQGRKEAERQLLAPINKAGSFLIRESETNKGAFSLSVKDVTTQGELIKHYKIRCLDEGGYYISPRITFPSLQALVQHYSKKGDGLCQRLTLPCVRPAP

Substance: …pYLRVAPQSd
apparent Kd (screen) (SYK-N (Homo sapiens)): 294 nM
apparent Kd (screen) (SYK-NC (Homo sapiens)): 380 nM
apparent Kd (screen) (LYN (Homo sapiens)): 171 nM
apparent Kd (screen) (PIK3R1-N (Homo sapiens)): 500 nM
apparent Kd (screen) (SHC3 (Homo sapiens)): 1030 nM
apparent Kd (screen) (CRKL (Homo sapiens)): 1340 nM
apparent Kd (screen) (PIK3R2-N (Homo sapiens)): 500 nM
apparent Kd (screen) (ITK (Homo sapiens)): 500 nM
apparent Kd (screen) (RASA1-N (Homo sapiens)): 708 nM
apparent Kd (screen) (PIK3R3-NC (Homo sapiens) [1]): 1110 nM
apparent Kd (screen) (TEC (Homo sapiens)): 480 nM
apparent Kd (screen) (BLK (Homo sapiens)): 500 nM
apparent Kd (screen) (SHC1-PTB (Homo sapiens) [2]): 317 nM
apparent Kd (screen) (YES1 (Homo sapiens)): 127 nM
apparent Kd (screen) (GRB7 (Homo sapiens)): 500 nM
apparent Kd (screen) (ABL2 (Homo sapiens)): 214 nM
apparent Kd (screen) (FGR (Homo sapiens)): 618 nM
apparent Kd (screen) (PIK3R3-NC (Homo sapiens) [3]): 805 nM
apparent Kd (screen) (PLCG2-NC (Homo sapiens)): 500 nM
apparent Kd (screen) (SRC (Homo sapiens)): 381 nM
apparent Kd (screen) (GRB2 (Homo sapiens)): 415 nM
apparent Kd (screen) (PIK3R1-NC (Homo sapiens)): 500 nM
apparent Kd (screen) (RASA1-NC (Homo sapiens)): 500 nM
apparent Kd (screen) (SHC1 (Homo sapiens)): 777 nM
apparent Kd (screen) (CRK (Homo sapiens)): 1070 nM
apparent Kd (screen) (SHC1-PTB (Homo sapiens) [4]): 337 nM

Kd (SRC SH2 domain (human)): 399 nM
Kd (VAV2 SH2 domain (human)): 9500 nM
Kd [5]: 167 nM and 544 nM
Kd (SHF SH2 domain (human)): 11900 nM
Kd (ABL2 SH2 domain (human)): 997 nM and 965 nM
Kd (NCK2 SH2 domain (human)): 10100 nM
Kd [6]: 653 nM
Kd [7]: 1260 nM
Kd (ITK SH2 domain (human)): 723 nM
Kd [8]: 662 nM
Kd [9]: 1000 nM
Kd [10]: 8560 nM
Kd [11]: 30900 nM
Kd (HSH2D SH2 domain (human)): 967 nM
Kd [12]: 1720 nM and 1180 nM
Kd [13]: 408 nM and 605 nM and 1530 nM
Substance: ErbB4 pY1202 phosphopeptide (18-mer), rhodamine-labelled, for protein microarrays

Kd [14]: < 100 nM
Kd [15]: < 100 nM
Substance: GRB7 SH2 domain (from UniProt Q14451 431-527) (domain or fragment)
